{"source": "patent US20260242735A1", "about": "(UNIVERSIT T BASEL, published 2026)", "experiment_in_all_cases": "BLI (Octet R8), avidity format: biotinylated CD33 on streptavidin sensor, Refmab #1 as analyte at 300 or 500 nM;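 also: sensorgrams recorded with a 300 s analyte association phase followed by a 900 s dissociation phase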", "key": {"[1]": {"biological_target": "CD33 variant W22R (recombinant, biotinylated) (human, UniProt P20138 18-259, biotinylated with EZ-Link Sulfo-NHS-LC-Biotin (sites not given))", "sequence (P20138 other isoform, or with tags, fused parts or gaps W22R W22R)": "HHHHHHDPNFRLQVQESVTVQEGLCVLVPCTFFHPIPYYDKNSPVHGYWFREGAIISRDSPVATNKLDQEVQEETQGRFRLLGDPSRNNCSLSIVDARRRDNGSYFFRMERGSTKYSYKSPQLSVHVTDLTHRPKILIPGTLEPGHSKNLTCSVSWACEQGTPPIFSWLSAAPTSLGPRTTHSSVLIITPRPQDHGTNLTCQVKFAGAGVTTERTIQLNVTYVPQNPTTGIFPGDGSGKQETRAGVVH"}, "[2]": {"biological_target": "CD33 variant W22D (recombinant, biotinylated) (human, UniProt P20138 18-259, biotinylated with EZ-Link Sulfo-NHS-LC-Biotin (sites not given))", "sequence (P20138 other isoform, or with tags, fused parts or gaps W22D W22D)": "as the sequence (P20138 other isoform, or with tags, fused parts or gaps W22R W22R) above, with R11D counted along it"}, "[3]": {"biological_target": "CD33 variant N20H (recombinant, biotinylated) (human, UniProt P20138 21-259, biotinylated with EZ-Link Sulfo-NHS-LC-Biotin (sites not given))", "sequence (P20138 other isoform, or with tags, fused parts or gaps N20H N20H)": "as the sequence (P20138 other isoform, or with tags, fused parts or gaps W22R W22R) above, with N9H, R11W counted along it"}, "[4]": {"biological_target": "CD33 double variant Y50H_H49H (recombinant, biotinylated) (human, UniProt P20138 18-259, biotinylated with EZ-Link Sulfo-NHS-LC-Biotin (sites not given))", "sequence (P20138 other isoform, or with tags, fused parts or gaps Y50H H49H Y50H H49H)": "as the sequence (P20138 other isoform, or with tags, fused parts or gaps W22R W22R) above, with R11W, Y38H, Y39H counted along it"}, "[5]": {"biological_target": "CD33 variant F21V (recombinant, biotinylated) (human, UniProt P20138 22-259, biotinylated with EZ-Link Sulfo-NHS-LC-Biotin (sites not given))", "sequence (P20138 other isoform, or with tags, fused parts or gaps F21V F21V)": "as the sequence (P20138 other isoform, or with tags, fused parts or gaps W22R W22R) above, with F10V, R11W counted along it"}, "[6]": {"biological_target": "CD33 variant F21H (recombinant, biotinylated) (human, UniProt P20138 22-259, biotinylated with EZ-Link Sulfo-NHS-LC-Biotin (sites not given))", "sequence (P20138 other isoform, or with tags, fused parts or gaps F21H F21H)": "as the sequence (P20138 other isoform, or with tags, fused parts or gaps W22R W22R) above, with F10H, R11W counted along it"}, "[7]": {"biological_target": "CD33 variant F21Q (recombinant, biotinylated) (human, UniProt P20138 22-259, biotinylated with EZ-Link Sulfo-NHS-LC-Biotin (sites not given))", "sequence (P20138 other isoform, or with tags, fused parts or gaps F21Q F21Q)": "as the sequence (P20138 other isoform, or with tags, fused parts or gaps W22R W22R) above, with F10Q, R11W counted along it"}, "[8]": {"biological_target": "CD33 variant N20K (recombinant, biotinylated) (human, UniProt P20138 21-259, biotinylated with EZ-Link Sulfo-NHS-LC-Biotin (sites not given))", "sequence (P20138 other isoform, or with tags, fused parts or gaps N20K N20K)": "as the sequence (P20138 other isoform, or with tags, fused parts or gaps W22R W22R) above, with N9K, R11W counted along it"}, "[9]": {"biological_target": "CD33 variant W22E (recombinant, biotinylated) (human, UniProt P20138 18-259, biotinylated with EZ-Link Sulfo-NHS-LC-Biotin (sites not given))", "sequence (P20138 other isoform, or with tags, fused parts or gaps W22E W22E)": "as the sequence (P20138 other isoform, or with tags, fused parts or gaps W22R W22R) above, with R11E counted along it"}, "[10]": {"biological_target": "CD33 variant N20V (recombinant, biotinylated) (human, UniProt P20138 21-259, biotinylated with EZ-Link Sulfo-NHS-LC-Biotin (sites not given))", "sequence (P20138 other isoform, or with tags, fused parts or gaps N20V N20V)": "as the sequence (P20138 other isoform, or with tags, fused parts or gaps W22R W22R) above, with N9V, R11W counted along it"}, "[11]": {"biological_target": "T1, CD33 wild type (recombinant, biotinylated) (human, UniProt P20138 18-259, biotinylated with EZ-Link Sulfo-NHS-LC-Biotin (sites not given))", "T1 construct": "also called WT; CD33 wt", "T1 sequence (P20138 other isoform, or with tags, fused parts or gaps)": "as the sequence (P20138 other isoform, or with tags, fused parts or gaps W22R W22R) above, with R11W counted along it"}, "[12]": {"biological_target": "CD33 variant F44P (recombinant, biotinylated) (human, UniProt P20138 18-259, biotinylated with EZ-Link Sulfo-NHS-LC-Biotin (sites not given))", "sequence (P20138 other isoform, or with tags, fused parts or gaps F44P F44P)": "as the sequence (P20138 other isoform, or with tags, fused parts or gaps W22R W22R) above, with R11W, F33P counted along it"}, "[13]": {"biological_target": "CD33 variant Y50D (recombinant, biotinylated) (human, UniProt P20138 18-259, biotinylated with EZ-Link Sulfo-NHS-LC-Biotin (sites not given))", "sequence (P20138 other isoform, or with tags, fused parts or gaps Y50D Y50D)": "as the sequence (P20138 other isoform, or with tags, fused parts or gaps W22R W22R) above, with R11W, Y39D counted along it"}, "[14]": {"biological_target": "CD33 variant N20E (recombinant, biotinylated) (human, UniProt P20138 21-259, biotinylated with EZ-Link Sulfo-NHS-LC-Biotin (sites not given))", "sequence (P20138 other isoform, or with tags, fused parts or gaps N20E N20E)": "as the sequence (P20138 other isoform, or with tags, fused parts or gaps W22R W22R) above, with N9E, R11W counted along it"}, "[15]": {"biological_target": "CD33 variant Y50R (recombinant, biotinylated) (human, UniProt P20138 18-259, biotinylated with EZ-Link Sulfo-NHS-LC-Biotin (sites not given))", "sequence (P20138 other isoform, or with tags, fused parts or gaps Y50R Y50R)": "as the sequence (P20138 other isoform, or with tags, fused parts or gaps W22R W22R) above, with R11W, Y39R counted along it"}, "[16]": {"biological_target": "CD33 variant W22K (recombinant, biotinylated) (human, UniProt P20138 18-259, biotinylated with EZ-Link Sulfo-NHS-LC-Biotin (sites not given))", "sequence (P20138 other isoform, or with tags, fused parts or gaps W22K W22K)": "as the sequence (P20138 other isoform, or with tags, fused parts or gaps W22R W22R) above, with R11K counted along it"}, "[17]": {"biological_target": "CD33 variant W22T (recombinant, biotinylated) (human, UniProt P20138 18-259, biotinylated with EZ-Link Sulfo-NHS-LC-Biotin (sites not given))", "sequence (P20138 other isoform, or with tags, fused parts or gaps W22T W22T)": "as the sequence (P20138 other isoform, or with tags, fused parts or gaps W22R W22R) above, with R11T counted along it"}, "[18]": {"biological_target": "CD33 variant F21M (recombinant, biotinylated) (human, UniProt P20138 22-259, biotinylated with EZ-Link Sulfo-NHS-LC-Biotin (sites not given))", "sequence (P20138 other isoform, or with tags, fused parts or gaps F21M F21M)": "as the sequence (P20138 other isoform, or with tags, fused parts or gaps W22R W22R) above, with F10M, R11W counted along it"}, "[19]": {"biological_target": "CD33 variant F21S (recombinant, biotinylated) (human, UniProt P20138 22-259, biotinylated with EZ-Link Sulfo-NHS-LC-Biotin (sites not given))", "sequence (P20138 other isoform, or with tags, fused parts or gaps F21S F21S)": "as the sequence (P20138 other isoform, or with tags, fused parts or gaps W22R W22R) above, with F10S, R11W counted along it"}, "[20]": {"biological_target": "CD33 variant F21L (recombinant, biotinylated) (human, UniProt P20138 22-259, biotinylated with EZ-Link Sulfo-NHS-LC-Biotin (sites not given))", "sequence (P20138 other isoform, or with tags, fused parts or gaps F21L F21L)": "as the sequence (P20138 other isoform, or with tags, fused parts or gaps W22R W22R) above, with F10L, R11W counted along it"}, "[21]": {"biological_target": "CD33 variant Y50K (recombinant, biotinylated) (human, UniProt P20138 18-259, biotinylated with EZ-Link Sulfo-NHS-LC-Biotin (sites not given))", "sequence (P20138 other isoform, or with tags, fused parts or gaps Y50K Y50K)": "as the sequence (P20138 other isoform, or with tags, fused parts or gaps W22R W22R) above, with R11W, Y39K counted along it"}, "[22]": {"biological_target": "CD33 variant N20G (recombinant, biotinylated) (human, UniProt P20138 21-259, biotinylated with EZ-Link Sulfo-NHS-LC-Biotin (sites not given))", "sequence (P20138 other isoform, or with tags, fused parts or gaps N20G N20G)": "as the sequence (P20138 other isoform, or with tags, fused parts or gaps W22R W22R) above, with N9G, R11W counted along it"}, "[23]": {"biological_target": "CD33 variant F21N (recombinant, biotinylated) (human, UniProt P20138 22-259, biotinylated with EZ-Link Sulfo-NHS-LC-Biotin (sites not given))", "sequence (P20138 other isoform, or with tags, fused parts or gaps F21N F21N)": "as the sequence (P20138 other isoform, or with tags, fused parts or gaps W22R W22R) above, with F10N, R11W counted along it"}, "[24]": {"biological_target": "CD33 variant F21I (recombinant, biotinylated) (human, UniProt P20138 22-259, biotinylated with EZ-Link Sulfo-NHS-LC-Biotin (sites not given))", "sequence (P20138 other isoform, or with tags, fused parts or gaps F21I F21I)": "as the sequence (P20138 other isoform, or with tags, fused parts or gaps W22R W22R) above, with F10I, R11W counted along it"}}}
{"binder": "Refmab #1 (antibody, human IgG1, V domains shown, also called hP67.6; Absolute Antibody Cat. No. Ab00283-10.0) VH: EVQLVQSGAEVKKPGSSVKVSCKASGYTITDSNIHWVRQAPGQSLEWIGYIYPYNGGTDYNQKFKNRATLTVDNPTNTAYMELSSLRSEDTAFYYCVNGNPWLAYWGQGTLVTVSS VL: DIQLTQSPSTLSASVGDRVTITCRASESLDNYGIRFLTWFQQKPGKAPKLLMYAASNQGSGVPSRFSGSGSGTEFTLTISSLQPDDFATYYCQQTKEVPWSFGQGTKVEVK", "values": [{"measurement": "% WT binding", "setting": "[1]", "result": 51.9, "unit": "% WT binding"}, {"measurement": "% WT binding", "setting": "[2]", "result": 12.7, "unit": "% WT binding"}, {"measurement": "% WT binding", "setting": "[3]", "result": 32.9, "unit": "% WT binding"}, {"measurement": "% WT binding", "setting": "[4]", "result": 95.8, "unit": "% WT binding"}, {"measurement": "% WT binding", "setting": "[5]", "result": 5.41, "unit": "% WT binding"}, {"measurement": "% WT binding", "setting": "[6]", "result": 10.4, "unit": "% WT binding"}, {"measurement": "% WT binding", "setting": "[7]", "result": 0, "unit": "% WT binding"}, {"measurement": "% WT binding", "setting": "[8]", "result": 6.79, "unit": "% WT binding"}, {"measurement": "% WT binding", "setting": "[9]", "result": 67.5, "unit": "% WT binding"}, {"measurement": "% WT binding", "setting": "[10]", "result": 29.3, "unit": "% WT binding"}, {"measurement": "% WT binding", "setting": "[11]", "result": 100, "unit": "% WT binding"}, {"measurement": "% WT binding", "setting": "[12]", "result": 2, "unit": "% WT binding"}, {"measurement": "% WT binding", "setting": "[13]", "result": 131, "unit": "% WT binding"}, {"measurement": "% WT binding", "setting": "[14]", "result": 5.59, "unit": "% WT binding"}, {"measurement": "% WT binding", "setting": "[15]", "result": 108, "unit": "% WT binding"}, {"measurement": "% WT binding", "setting": "[16]", "result": 22.4, "unit": "% WT binding"}, {"measurement": "% WT binding", "setting": "[17]", "result": 37.5, "unit": "% WT binding"}, {"measurement": "% WT binding", "setting": "[18]", "result": 6.62, "unit": "% WT binding"}, {"measurement": "% WT binding", "setting": "[19]", "result": 9.03, "unit": "% WT binding"}, {"measurement": "% WT binding", "setting": "[20]", "result": 12.2, "unit": "% WT binding"}, {"measurement": "% WT binding", "setting": "[21]", "result": 86.6, "unit": "% WT binding"}, {"measurement": "% WT binding", "setting": "[22]", "result": 9.44, "unit": "% WT binding"}, {"measurement": "% WT binding", "setting": "[23]", "result": 0, "unit": "% WT binding"}, {"measurement": "% WT binding", "setting": "[24]", "result": 0, "unit": "% WT binding"}]}
